Values quoted from earlier work as cited in PMC4019842.

Target: holo-transferrin (Homo sapiens) (UniProt P02787)
Sequence of UniProt P02787 (P02787 20-698): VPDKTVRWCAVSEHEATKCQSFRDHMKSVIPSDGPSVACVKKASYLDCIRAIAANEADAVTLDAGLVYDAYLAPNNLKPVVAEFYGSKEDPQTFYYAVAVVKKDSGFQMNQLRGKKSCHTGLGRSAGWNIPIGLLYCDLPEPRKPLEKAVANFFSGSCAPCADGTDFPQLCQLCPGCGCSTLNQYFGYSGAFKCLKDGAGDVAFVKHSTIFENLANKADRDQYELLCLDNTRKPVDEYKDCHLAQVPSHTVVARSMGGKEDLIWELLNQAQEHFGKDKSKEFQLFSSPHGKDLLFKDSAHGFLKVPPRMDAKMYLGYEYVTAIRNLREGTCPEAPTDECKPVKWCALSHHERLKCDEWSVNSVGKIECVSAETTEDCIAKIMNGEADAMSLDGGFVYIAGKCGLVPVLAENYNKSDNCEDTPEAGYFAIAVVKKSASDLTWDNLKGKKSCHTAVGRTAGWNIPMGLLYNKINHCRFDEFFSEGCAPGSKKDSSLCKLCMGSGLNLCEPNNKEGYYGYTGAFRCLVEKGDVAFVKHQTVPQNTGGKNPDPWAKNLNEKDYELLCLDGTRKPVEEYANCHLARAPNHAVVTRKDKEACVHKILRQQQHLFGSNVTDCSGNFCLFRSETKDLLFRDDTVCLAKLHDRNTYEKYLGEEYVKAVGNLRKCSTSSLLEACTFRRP

## TFR2 (from UniProt Q9UP52)
  Kd: 30 nM
